Experimental data as given in the supplement of paper PMC10065799, “High-throughput profiling of sequence recognition by tyrosine kinases and SH2 domains using bacterial peptide display” (eLife, 2023).

Columns and labels:
[1] = target: FGFR3 (UniProt P22607); assay: phosphorylation enrichment, bacterial display (enrichment ratio); higher = better substrate or ligand; peptides without Tyr show the background
[2] = target: Fyn (UniProt P06241); assay: as above
[3] = target: MERTK (UniProt Q12866); assay: as above
Sequence of MERTK (Q12866 whole entry, looked up): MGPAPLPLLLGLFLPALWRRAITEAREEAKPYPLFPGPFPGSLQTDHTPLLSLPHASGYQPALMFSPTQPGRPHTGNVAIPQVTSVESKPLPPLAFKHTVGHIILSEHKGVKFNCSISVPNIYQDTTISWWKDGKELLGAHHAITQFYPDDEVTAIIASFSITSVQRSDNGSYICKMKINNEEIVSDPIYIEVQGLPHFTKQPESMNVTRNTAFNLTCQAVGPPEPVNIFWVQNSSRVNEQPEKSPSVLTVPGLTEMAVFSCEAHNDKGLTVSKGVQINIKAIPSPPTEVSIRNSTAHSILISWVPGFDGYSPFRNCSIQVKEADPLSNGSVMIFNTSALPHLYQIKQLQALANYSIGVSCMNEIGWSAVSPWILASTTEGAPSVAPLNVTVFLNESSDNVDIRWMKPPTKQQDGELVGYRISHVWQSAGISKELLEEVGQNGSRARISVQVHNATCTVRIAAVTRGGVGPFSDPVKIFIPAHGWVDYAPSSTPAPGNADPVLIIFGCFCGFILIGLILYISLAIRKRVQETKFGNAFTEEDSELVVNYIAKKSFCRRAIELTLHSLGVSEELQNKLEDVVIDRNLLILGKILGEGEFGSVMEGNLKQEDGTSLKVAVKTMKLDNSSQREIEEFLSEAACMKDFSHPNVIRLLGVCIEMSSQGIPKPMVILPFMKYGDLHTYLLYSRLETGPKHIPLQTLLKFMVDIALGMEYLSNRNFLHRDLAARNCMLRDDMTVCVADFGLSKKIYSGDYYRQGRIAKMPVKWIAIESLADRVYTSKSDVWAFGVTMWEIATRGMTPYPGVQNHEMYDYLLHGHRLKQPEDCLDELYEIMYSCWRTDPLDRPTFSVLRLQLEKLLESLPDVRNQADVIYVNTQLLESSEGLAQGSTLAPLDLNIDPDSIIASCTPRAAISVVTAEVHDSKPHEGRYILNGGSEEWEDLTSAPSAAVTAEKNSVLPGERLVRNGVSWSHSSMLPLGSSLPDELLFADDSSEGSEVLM

[4] = test system: c-Abl (mouse); assay: as above
[5] = test system: c-Src; assay: as above
[6] = target: EPHB2 (UniProt P29323); assay: as above
[7] = test system: AncSZ; assay: as above
[8] = target: Fes (UniProt P07332); assay: as above
[9] = target: FGFR1 (UniProt P11362); assay: as above
Sequence of FGFR1 (P11362 whole entry, looked up): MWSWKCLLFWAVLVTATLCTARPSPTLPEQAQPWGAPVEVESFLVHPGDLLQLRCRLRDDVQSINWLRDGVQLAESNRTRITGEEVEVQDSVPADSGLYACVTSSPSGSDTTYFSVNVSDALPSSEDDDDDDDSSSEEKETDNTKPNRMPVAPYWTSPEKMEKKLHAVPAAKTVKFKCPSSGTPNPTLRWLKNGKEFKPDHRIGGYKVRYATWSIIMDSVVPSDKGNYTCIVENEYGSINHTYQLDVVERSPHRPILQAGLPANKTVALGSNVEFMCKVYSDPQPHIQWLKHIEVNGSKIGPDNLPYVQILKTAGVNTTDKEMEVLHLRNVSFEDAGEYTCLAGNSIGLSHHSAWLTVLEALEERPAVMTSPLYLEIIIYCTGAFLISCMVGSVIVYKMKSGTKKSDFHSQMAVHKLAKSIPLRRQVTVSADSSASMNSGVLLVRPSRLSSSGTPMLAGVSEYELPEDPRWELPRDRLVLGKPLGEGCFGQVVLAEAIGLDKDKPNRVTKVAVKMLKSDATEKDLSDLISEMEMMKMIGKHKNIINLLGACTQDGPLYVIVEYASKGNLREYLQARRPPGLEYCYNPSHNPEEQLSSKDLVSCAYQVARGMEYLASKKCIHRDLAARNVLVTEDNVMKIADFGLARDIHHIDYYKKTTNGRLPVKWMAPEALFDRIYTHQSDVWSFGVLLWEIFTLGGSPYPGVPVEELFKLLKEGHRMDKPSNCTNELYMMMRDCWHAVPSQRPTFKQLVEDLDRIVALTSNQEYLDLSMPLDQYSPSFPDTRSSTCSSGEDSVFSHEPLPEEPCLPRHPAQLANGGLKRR

[10] = target: EPHB1 (UniProt P54762); assay: as above
Sequence of EPHB1 (P54762 whole entry, looked up): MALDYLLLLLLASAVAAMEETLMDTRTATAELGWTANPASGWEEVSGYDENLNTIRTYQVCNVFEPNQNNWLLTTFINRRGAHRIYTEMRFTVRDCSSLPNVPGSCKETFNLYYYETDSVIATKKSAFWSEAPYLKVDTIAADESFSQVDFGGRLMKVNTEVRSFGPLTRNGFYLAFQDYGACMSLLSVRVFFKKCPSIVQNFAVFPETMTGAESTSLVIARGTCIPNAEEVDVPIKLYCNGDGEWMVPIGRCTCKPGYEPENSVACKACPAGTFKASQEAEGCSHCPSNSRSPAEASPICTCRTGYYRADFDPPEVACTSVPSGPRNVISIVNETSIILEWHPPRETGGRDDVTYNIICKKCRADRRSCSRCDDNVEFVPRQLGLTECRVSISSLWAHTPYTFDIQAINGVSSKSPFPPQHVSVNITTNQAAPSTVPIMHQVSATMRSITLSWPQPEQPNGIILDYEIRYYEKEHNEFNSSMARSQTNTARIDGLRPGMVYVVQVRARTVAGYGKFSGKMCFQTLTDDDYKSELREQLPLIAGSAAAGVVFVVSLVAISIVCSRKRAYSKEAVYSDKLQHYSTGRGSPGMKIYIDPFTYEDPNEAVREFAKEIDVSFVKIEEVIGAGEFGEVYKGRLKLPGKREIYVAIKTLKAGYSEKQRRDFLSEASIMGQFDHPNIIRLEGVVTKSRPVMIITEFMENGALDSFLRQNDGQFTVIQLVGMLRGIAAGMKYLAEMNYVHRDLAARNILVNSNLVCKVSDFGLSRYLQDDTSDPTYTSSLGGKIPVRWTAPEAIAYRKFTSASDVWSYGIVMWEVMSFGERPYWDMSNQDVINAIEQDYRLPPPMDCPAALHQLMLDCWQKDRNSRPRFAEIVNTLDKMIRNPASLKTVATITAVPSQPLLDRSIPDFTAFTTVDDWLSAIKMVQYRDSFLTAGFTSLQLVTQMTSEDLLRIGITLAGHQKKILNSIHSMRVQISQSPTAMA

[11] = target: Hck (UniProt P08631); assay: as above
Sequence of Hck (P08631 whole entry, looked up): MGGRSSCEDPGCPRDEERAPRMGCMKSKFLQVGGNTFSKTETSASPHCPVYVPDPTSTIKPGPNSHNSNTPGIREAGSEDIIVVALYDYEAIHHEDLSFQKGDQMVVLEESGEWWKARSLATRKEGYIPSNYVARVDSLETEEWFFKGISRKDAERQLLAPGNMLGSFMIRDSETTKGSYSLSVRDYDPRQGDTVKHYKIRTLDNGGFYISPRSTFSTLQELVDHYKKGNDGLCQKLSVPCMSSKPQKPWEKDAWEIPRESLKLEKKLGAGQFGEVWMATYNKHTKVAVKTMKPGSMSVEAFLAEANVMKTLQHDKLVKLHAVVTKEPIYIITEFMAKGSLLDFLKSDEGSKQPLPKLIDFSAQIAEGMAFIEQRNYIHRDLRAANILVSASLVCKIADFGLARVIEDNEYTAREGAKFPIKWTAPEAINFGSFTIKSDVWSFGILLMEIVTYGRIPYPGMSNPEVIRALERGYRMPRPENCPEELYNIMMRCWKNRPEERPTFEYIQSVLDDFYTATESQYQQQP

[12] = target: Jak2 (UniProt O60674); assay: as above
[13] = test system: Fer (mouse); assay: as above
[14] = target: Grb2 SH2 (UniProt P62993); assay: SH2 binding enrichment of the phosphorylated peptide, bacterial display (enrichment ratio); higher = better substrate or ligand; peptides without Tyr show the background
Sequence of Grb2 SH2 (P62993 whole entry, looked up): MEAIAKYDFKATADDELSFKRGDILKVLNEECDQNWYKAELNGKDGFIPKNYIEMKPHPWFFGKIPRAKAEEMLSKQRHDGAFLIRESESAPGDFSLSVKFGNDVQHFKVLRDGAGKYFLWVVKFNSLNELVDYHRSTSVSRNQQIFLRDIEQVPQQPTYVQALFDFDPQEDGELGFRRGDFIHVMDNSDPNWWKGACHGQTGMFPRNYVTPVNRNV

[15] = target: SHP2-C SH2; assay: as above
[16] = target: c-Src SH2; assay: as above
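Wherever SH2 binding enrichment of the phosphorylated peptide, bacterial display is given: peptide library displayed on the E. coli surface as eCPX fusions, selected cells deep-sequenced, score is each peptide's frequency after selection divided by its frequency in the input.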
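Wherever phosphorylation enrichment, bacterial display is given: 11-residue human phosphosite peptides and single-mutation variants displayed on the E. coli surface, counted by deep sequencing, each peptide's frequency after selection divided by its frequency in the unselected input library; frequency after pTyr selection over input frequency; kinase dosed for 20-30% of maximal phosphorylation in three min.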

Sequence of FGFR3 (P22607 whole entry, looked up): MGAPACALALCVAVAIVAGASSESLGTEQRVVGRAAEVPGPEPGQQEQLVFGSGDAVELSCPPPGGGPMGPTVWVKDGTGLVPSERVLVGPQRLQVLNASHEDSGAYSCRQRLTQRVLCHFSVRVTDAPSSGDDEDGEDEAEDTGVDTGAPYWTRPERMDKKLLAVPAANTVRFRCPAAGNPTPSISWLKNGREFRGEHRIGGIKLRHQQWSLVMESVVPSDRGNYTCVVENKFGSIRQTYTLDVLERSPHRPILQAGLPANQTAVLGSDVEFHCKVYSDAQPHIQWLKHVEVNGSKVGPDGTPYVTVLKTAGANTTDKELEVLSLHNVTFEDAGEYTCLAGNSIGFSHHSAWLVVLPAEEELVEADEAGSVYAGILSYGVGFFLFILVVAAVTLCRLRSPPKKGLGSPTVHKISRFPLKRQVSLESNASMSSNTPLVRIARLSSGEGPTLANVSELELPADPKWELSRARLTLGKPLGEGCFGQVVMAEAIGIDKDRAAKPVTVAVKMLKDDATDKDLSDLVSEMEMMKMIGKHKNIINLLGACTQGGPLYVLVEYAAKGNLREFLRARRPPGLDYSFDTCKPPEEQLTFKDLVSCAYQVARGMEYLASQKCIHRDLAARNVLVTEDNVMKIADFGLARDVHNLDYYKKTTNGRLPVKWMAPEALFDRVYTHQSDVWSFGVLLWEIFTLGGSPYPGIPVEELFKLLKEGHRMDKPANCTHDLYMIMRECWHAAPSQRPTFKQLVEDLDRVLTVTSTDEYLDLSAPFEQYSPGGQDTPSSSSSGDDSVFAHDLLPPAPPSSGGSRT
Sequence of Fyn (P06241 whole entry, looked up): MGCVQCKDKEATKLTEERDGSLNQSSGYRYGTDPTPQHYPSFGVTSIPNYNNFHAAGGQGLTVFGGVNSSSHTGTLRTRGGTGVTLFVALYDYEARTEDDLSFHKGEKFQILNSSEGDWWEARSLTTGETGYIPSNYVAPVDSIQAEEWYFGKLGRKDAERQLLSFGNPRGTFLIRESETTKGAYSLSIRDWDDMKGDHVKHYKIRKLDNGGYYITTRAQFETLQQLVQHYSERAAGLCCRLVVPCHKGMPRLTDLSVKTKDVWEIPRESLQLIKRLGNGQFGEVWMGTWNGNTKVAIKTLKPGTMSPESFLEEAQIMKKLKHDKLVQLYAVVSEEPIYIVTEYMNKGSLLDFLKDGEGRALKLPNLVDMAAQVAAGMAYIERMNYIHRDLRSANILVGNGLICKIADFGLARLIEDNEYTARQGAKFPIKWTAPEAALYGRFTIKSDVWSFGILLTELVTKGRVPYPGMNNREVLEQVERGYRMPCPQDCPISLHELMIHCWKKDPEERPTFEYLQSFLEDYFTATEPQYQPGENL

| Sequence | phosphorylation enrichment [1] | phosphorylation enrichment [2] | phosphorylation enrichment [3] | phosphorylation enrichment [4] | phosphorylation enrichment [5] | phosphorylation enrichment [6] | phosphorylation enrichment [7] | phosphorylation enrichment [8] | phosphorylation enrichment [9] | phosphorylation enrichment [10] | phosphorylation enrichment [11] | phosphorylation enrichment [12] | phosphorylation enrichment [13] | SH2 binding enrichment [14] | SH2 binding enrichment [15] | SH2 binding enrichment [16] |
| --- | --- | --- | --- | --- | --- | --- | --- | --- | --- | --- | --- | --- | --- | --- | --- | --- |
| EFGFRYELVQF [UGGT2_Y1289_Y1285F_YF] | 0.853 | 0.433 | 0.375 | 0.64 | 0.315 | 0.585 | 1.26 | 1.21 | 0.477 | 0.592 | 0.509 | 1.11 | 0.887 | 0.849 | 0.859 | 1.4 |
| EFGFRYELVQY [UGGT2_Y1289_Y1285F] | 0.617 | 0.329 | 0.338 | 0.627 | 0.393 | 0.507 | 1.11 | 1.14 | 0.512 | 0.573 | 0.429 | 1.05 | 0.611 | 0.566 | 0.501 | 1.39 |
| EFQLPYFNMVP [BMPR1A_Y457_YF] | 3.58 | 0.547 | 0.584 | 0.618 | 2.12 | 0.46 | 1.01 | 1.01 | 5 | 0.389 | 0.596 | 7.21 | 0.348 | 2.82 | 0.95 | 0.751 |
| EGLKVYVNGTL [ADGRD1_Y183] | 1.05 | 0.497 | 0.469 | 0.848 | 0.418 | 0.68 | 1.22 | 1.33 | 0.527 | 0.633 | 0.457 | 1.24 | 0.491 | 1.68 | 0.757 | 0.502 |
| EIASHYRHLLR [ZBTB46_Y14_T11A] | 0.528 | 0.428 | 0.421 | 0.415 | 0.421 | 0.42 | 0.597 | 0.585 | 0.416 | 0.357 | 0.573 | 0.703 | 0.516 | 0.759 | 0.794 | 0.522 |
| EILLSYLRTGY [TGM1_Y365] | 0.749 | 0.524 | 0.413 | 0.922 | 0.462 | 0.612 | 1.06 | 1.1 | 0.559 | 0.544 | 0.536 | 1.4 | 0.548 | 1.17 | 1.14 | 0.845 |
| EILLSYPRTGF [TGM1_Y365_L366P_YF] | 0.555 | 0.541 | 0.411 | 0.515 | 0.356 | 0.533 | 0.695 | 0.935 | 0.488 | 0.562 | 0.534 | 0.872 | 0.397 | 0.821 | 0.83 | 0.528 |
| ELELLYLDRNS [NYX_Y284] | 0.634 | 0.494 | 0.347 | 0.573 | 0.515 | 0.519 | 0.934 | 0.904 | 0.493 | 0.518 | 0.551 | 0.761 | 0.408 | 1.03 | 0.7 | 0.59 |
| EMFNPYFGLFE [NEDD4L_Y679_YF] | 1.68 | 7.38 | 3.52 | 1.14 | 7.31 | 1.88 | 1.52 | 1.21 | 1.94 | 2.32 | 6.01 | 8.21 | 2.66 | 1.53 | 1.1 | 0.743 |
| ENELTYYCYKK [CD59_Y86_C89Y] | 1.53 | 4.74 | 1.36 | 6.18 | 5.18 | 0.752 | 1.92 | 1.69 | 1.68 | 0.794 | 4.79 | 2.25 | 0.685 | 0.793 | 0.65 | 0.45 |
| EPSVDYCVVKI [CAD_Y735] | 1.71 | 0.577 | 0.529 | 0.774 | 0.618 | 1.95 | 1.57 | 1.11 | 2.25 | 2.83 | 0.664 | 1.1 | 1.26 | 1.11 | 1.22 | 0.684 |
| EPVSDYINASI [PTPN11_Y304_N308S] | 0.651 | 0.385 | 0.494 | 0.909 | 0.526 | 0.566 | 1.05 | 1.03 | 0.569 | 0.608 | 0.49 | 0.953 | 0.5 | 1.06 | 0.593 | 0.512 |
| EQKKYYNATKK [SCN5A_Y1495_M1498T] | 0.387 | 0.375 | 0.371 | 0.485 | 0.411 | 0.383 | 0.478 | 0.54 | 0.343 | 0.399 | 0.384 | 0.503 | 0.407 | 1.16 | 1.04 | 0.731 |
| EQMLEYMGQLQ [CFAP45_Y289_E291G] | 0.595 | 0.542 | 0.448 | 0.762 | 0.505 | 0.493 | 0.913 | 1.01 | 0.447 | 0.436 | 0.507 | 0.873 | 0.427 | 0.794 | 0.553 | 0.42 |
| ERSMSYCDESR [SMG1_Y143_S144C] | 0.551 | 0.422 | 0.43 | 0.704 | 0.491 | 0.496 | 0.788 | 0.77 | 0.475 | 0.435 | 0.402 | 0.728 | 0.474 | 0.951 | 1.28 | 0.644 |
| ERWLKYFPNEQ [HS3ST5_Y244_I247N] | 0.632 | 0.62 | 0.38 | 0.518 | 0.419 | 0.584 | 1.09 | 1.12 | 0.438 | 0.664 | 0.482 | 0.927 | 0.459 | 0.95 | 1.24 | 0.707 |
| ESMQSYDLDYP [UNC13B_Y243_D238E] | 0.686 | 0.536 | 0.466 | 0.933 | 0.544 | 0.534 | 1.16 | 1.26 | 0.698 | 0.651 | 0.615 | 0.991 | 0.495 | 0.681 | 0.538 | 0.851 |

| Sequence | phosphorylation enrichment [1] | phosphorylation enrichment [2] | phosphorylation enrichment [3] | phosphorylation enrichment [4] | phosphorylation enrichment [5] | phosphorylation enrichment [6] | phosphorylation enrichment [7] | phosphorylation enrichment [8] | phosphorylation enrichment [9] | phosphorylation enrichment [10] | phosphorylation enrichment [11] | phosphorylation enrichment [12] | phosphorylation enrichment [13] | SH2 binding enrichment [14] | SH2 binding enrichment [15] | SH2 binding enrichment [16] |
| --- | --- | --- | --- | --- | --- | --- | --- | --- | --- | --- | --- | --- | --- | --- | --- | --- |
| ESPGLYGFLNV [BCR_Y910] | 0.646 | 1.48 | 1.05 | 0.717 | 1.23 | 0.574 | 1.09 | 1.1 | 0.527 | 0.586 | 2.24 | 0.922 | 1.23 | 0.822 | 0.598 | 0.479 |
| ESVNTYLQTSP [NAT1_Y208_M205V] | 0.577 | 0.441 | 0.588 | 0.655 | 0.589 | 0.838 | 0.874 | 0.887 | 0.386 | 0.538 | 0.556 | 0.799 | 0.49 | 0.762 | 0.527 | 0.395 |
| EVDETYVPKEF [ALB_Y521] | 0.791 | 0.517 | 0.491 | 0.889 | 0.595 | 0.64 | 1.22 | 1.58 | 0.589 | 0.613 | 0.668 | 1.19 | 0.605 | 0.881 | 0.651 | 0.498 |
| EVEFQYPFRLH [SYP_Y73_E72Q] | 0.709 | 0.445 | 0.443 | 0.885 | 0.506 | 0.498 | 1.03 | 1.23 | 0.475 | 0.64 | 0.473 | 1.1 | 0.524 | 0.913 | 0.462 | 0.489 |
| EVEPTYVVLFD [ERCC4_Y577_R576T_YF] | 3.65 | 6.46 | 3.5 | 1.22 | 5.25 | 14.1 | 1.51 | 1.21 | 5.46 | 11.1 | 3.99 | 1.26 | 1.08 | 0.749 | 0.521 | 0.51 |
| EVESPYEVRDF [GIGYF2_Y1168_H1171R_YF] | 0.942 | 7.49 | 0.809 | 1.09 | 6.73 | 0.951 | 1.57 | 1.71 | 0.655 | 1.01 | 2.04 | 1.63 | 9.13 | 0.888 | 0.616 | 0.45 |
| EVESPYEVRDY [GIGYF2_Y1168_H1171R] | 0.751 | 5.17 | 0.554 | 0.765 | 4.71 | 0.752 | 1.23 | 1.29 | 0.542 | 0.785 | 1.48 | 1.16 | 5.62 | 0.674 | 0.885 | 0.626 |
| EVGHVYLFLQP [ITGA2B_Y360_R358H] | 0.893 | 0.472 | 0.393 | 0.885 | 0.434 | 0.679 | 1.33 | 1.42 | 0.512 | 0.735 | 0.5 | 1.42 | 0.618 | 0.755 | 0.669 | 0.425 |
| EVKAQNEDIAQ [KRT1_Y358_Y358N] | 0.584 | 0.413 | 0.511 | 0.51 | 0.427 | 0.549 | 0.86 | 0.867 | 0.54 | 0.422 | 0.488 | 0.767 | 0.411 | 0.977 | 0.669 | 0.587 |
| EVRTQYEEIAQ [KRT76_Y361_A359T] | 0.726 | 0.455 | 0.395 | 0.899 | 0.376 | 0.504 | 1.08 | 1.04 | 0.49 | 0.679 | 0.576 | 0.919 | 0.588 | 0.882 | 0.967 | 20.6 |
| EWLRRYLKNGK [HLA-C_Y195_E197K] | 0.516 | 0.439 | 0.581 | 0.546 | 0.504 | 0.578 | 0.68 | 0.636 | 0.507 | 0.373 | 0.522 | 0.679 | 0.471 | 0.656 | 0.409 | 0.436 |
| EYFENYIEELK [PARP4_Y218] | 1.69 | 0.539 | 0.422 | 0.851 | 0.63 | 0.647 | 1.44 | 1.4 | 2.31 | 0.73 | 0.607 | 1.5 | 0.518 | 0.657 | 0.785 | 0.38 |
| FDSPFYRDSLP [TSC1_Y508] | 0.484 | 0.454 | 0.409 | 0.47 | 0.451 | 0.479 | 0.703 | 0.68 | 0.446 | 0.314 | 0.47 | 0.594 | 0.497 | 0.796 | 0.652 | 0.518 |
| FECKWYIPLTD [BCR_Y756_D752E_YF] | 1 | 0.434 | 0.433 | 0.796 | 0.451 | 0.723 | 1.23 | 1.49 | 0.497 | 0.754 | 0.538 | 1.32 | 0.592 | 0.685 | 0.817 | 0.561 |
| FENGEYIIRQG [PRKG1_Y247_YF] | 0.69 | 0.572 | 0.427 | 0.653 | 0.591 | 0.464 | 1.01 | 1.07 | 0.499 | 0.543 | 0.565 | 0.92 | 0.557 | 0.908 | 0.462 | 0.382 |
| FEPDAYDDLDQ [ELP5_Y302_YF] | 0.704 | 0.574 | 0.57 | 0.731 | 0.41 | 0.684 | 1.29 | 1.3 | 0.573 | 0.624 | 0.571 | 1.27 | 0.6 | 1.03 | 0.807 | 0.623 |
